Measurements from the supplement of paper PMC10567573.
± gives the standard deviation.

Test: protein stability index of a GFP-peptide fusion (GPS, HEK-293T) (PSI 1-6); higher = more stable
[1] = treatment: DMSO, c terminus: a fixed tail appended
[2] = treatment: MLN4924 1 uM, 8 h, c terminus: a fixed tail appended
[3] = treatment: DMSO, c terminus: native
[4] = treatment: MLN4924 1 uM, 8 h, c terminus: native
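Also: 24-mer peptide tiles fused after GFP, lentivirally expressed, FACS-sorted into six equal bins by GFP/DsRed ratio, decoded by Illumina sequencing, PSI is the read-weighted mean bin number.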

Sequence | protein stability index [1] | protein stability index [2] | protein stability index [3] | protein stability index [4]
RQTKKMFCDMDKSLLCLLCSNSQE [TRIM43] | 2.44 ± 0.15 | 2.86 ± 0.21 | – | –
NPQRQGLLKTPWRAASAMQFFTKG [GCH1] | 2.89 ± 0.29 | 2.76 ± 0.21 | – | –
HFVDEHGKDQGINIRQKVKELVEF [CLINT1] | 3.26 ± 0.23 | 3.83 ± 0.28 | – | –
LNAEAGHLDPGFLASDKTSAGNAP [C18orf25] | 5.07 ± 0.14 | 4.98 ± 0.14 | – | –
FEAPPLQGQAAAPASGSGADSEPA [TRIM55] | 5.65 ± 0.28 | 5.53 ± 0.1 | – | –
ANGEVTYSFRKLPDTQLLKFQLNK [PCDHGA10] | 2.83 ± 0.33 | 2.85 ± 0.24 | – | –
ERIEARLATLEGDDPSLRKTHSSP [PSD2] | 5.08 ± 0.37 | 5.09 ± 0.18 | – | –
DLNSKGKKREFRFHPIKETVVEEP [INTS3] | 3 ± 0.65 | 3.64 ± 0.53 | – | –
PAEEAGPEGGLEEPDALDDSLTSL [FOXJ1] | 5.6 ± 0.23 | 5.56 ± 0.34 | – | –
PRTSQSEETRVWHRRDGKWQNVHF [CAMK2B] | 3.29 ± 0.3 | 3.39 ± 0.22 | – | –
EHLPVKPDTMEKLRTHIDAIILAL [DENND6A] | 2.64 ± 0.3 | 2.63 ± 0.51 | – | –
QVVSQGWKYFKGNFYYFSLIPKTW [CD207] | 2.14 ± 0.41 | 2.1 ± 0.39 | – | –
LKHWRRAMELRHQGGEYLPKPEPP [FEM1A] | 3.08 ± 0.53 | 3.16 ± 0.41 | – | –
MHANVEDRGIKGDITPLMAAANGG [ANKRD17] | 4.58 ± 0.14 | 4.67 ± 0.086 | – | –
SVPLSLCVSSHLALPAQHHWESW [CLPTM1] | – | – | 2.22 ± 0.1 | 2.33 ± 0.25
RKHSDLEEEEERWEWSPAGLQSYQ [SERTAD3] | 4.35 ± 0.26 | 4.38 ± 0.17 | – | –
LLLLDLLALYTPVGAAGSARQELL [ANKRD9] | 2.89 ± 0.38 | 2.88 ± 0.27 | – | –
ITLDGGVLVHVQKWDGKSTTIKRK [FABP4] | 2.46 ± 0.38 | 3.06 ± 0.1 | – | –
ETVVNRIAAGEVIQRPANAIKEMI [MLH1] | 3.17 ± 0.17 | 3.36 ± 0.19 | – | –
RQVNIRTANCTTANQNCVNKSKLL [KCNA1] | 3.51 ± 0.12 | 3.48 ± 0.28 | – | –
AAVVTSPPPTTAPHKERYFDRVDE [ADD1] | 4.77 ± 0.44 | 4.73 ± 0.34 | – | –
YNVSPLSWNVAVKFLMARKFDVLR [PTPN9] | 3.02 ± 0.62 | 2.46 ± 0.88 | – | –
TLITAVELERFVNLHSLALDFCDF [FBXO33] | 2.47 ± 0.28 | 2.95 ± 1.3 | – | –

Sequence | protein stability index [1] | protein stability index [2] | protein stability index [3] | protein stability index [4]
TLKKFKGDLAYRRQEYQKALQEYS [C8orf76] | 2.82 ± 0.29 | 2.79 ± 0.31 | – | –
ESFRDLQLRLLQAPLQADLTEQVW [SCARA5] | 2.59 ± 0.089 | 3.1 ± 0.4 | – | –
MSVAIRKRSWEEHVTHWMGQPFNS [DLC1] | 2.41 ± 0.65 | 2.43 ± 0.18 | – | –
SNATATPSVRKKAGSFSRRLIKRF [C2CD2L] | 3.47 ± 0.18 | 3.61 ± 0.18 | – | –
KLPPYLIFCIKRFTKNNFFVEKNP [USP39] | 3.02 ± 0.12 | 2.75 ± 0.4 | – | –
VQILCHTYWEHWTSQGQVRMRLFG [RTP4] | 2.45 ± 0.87 | 2.52 ± 1.1 | – | –
LRDVNHEKAMAEWVKQQAEREAEK [SDE2] | 5.19 ± 0.12 | 5.42 ± 0.23 | – | –
HTAKCEKLQKEKEELERRFEDEVK [MTUS2] | 5.57 ± 0.26 | 5.6 ± 0.07 | – | –
LVCTADGDIHLSPEEPAASTDPNI [TAF7L] | 4.85 ± 0.2 | 4.89 ± 0.22 | – | –
ADGFGDNPFYHCLVAEILPAPGKL [SAT2] | 2.27 ± 0.14 | 2.37 ± 0.42 | – | –
QVEALAAAGVDHVILAVSYMSQVL [GMPPB] | 2.92 ± 0.65 | 2.48 ± 0.45 | – | –
PPPPIDNGDITSFLLSVYAPGSSV [CFHR2] | 2.66 ± 0.33 | 2.65 ± 0.37 | – | –
PGAYYPYERTLGQYQYERYGAVEL [IRX6] | 2.3 ± 0.33 | 2.41 ± 0.21 | – | –
NAGKVNLPKELPADAVNLTIPASL [PLAGL1] | 4.4 ± 0.25 | 4.43 ± 0.22 | – | –
EEEERDQALQAKASLTIPLVPETE [YJU2B] | 5.42 ± 0.16 | 5.5 ± 0.12 | – | –
FESLPENASHKLEVRLVPVSFEDP [ATE1] | 3.68 ± 0.13 | 3.68 ± 0.31 | – | –
HDSANCELPLLTPCSKAVMSQALK [ETS2] | 3.34 ± 0.28 | 3.45 ± 0.24 | – | –
EVMKCIVEVISDTLSKPSPMPVSQ [CHGA] | 2.55 ± 0.18 | 2.48 ± 0.4 | – | –
EMDMVVFRPEMKKHSWCLKRKNPP [N4BP2L1] | 3.25 ± 0.31 | 3.25 ± 0.18 | – | –
LRAQVPFEQILSLPELKANPFKER [CIB1] | 3.17 ± 0.29 | 3.1 ± 0.42 | – | –
QNVARIPEFELLWKDIIHNPQALS [INTS3] | 2.47 ± 0.34 | 2.53 ± 0.3 | – | –
GPRDPQLVPILIEAARNGKMKFVI [NSDHL] | 2.11 ± 0.44 | 2.38 ± 0.38 | – | –
RIKIWDVYTGKLLLNLVDHTEVVR [WSB1] | 2.61 ± 0.59 | 2.57 ± 0.34 | – | –

Sequence | protein stability index [1] | protein stability index [2] | protein stability index [3] | protein stability index [4]
RPVLLSKIEGHQDAVTAALLIPKE [WDFY1] | 3.87 ± 0.28 | 3.94 ± 0.34 | – | –
KMTDLLSRRLQLGSEENGRYFSLS [PCDHGC5] | 2.41 ± 0.16 | 2.47 ± 0.14 | – | –
TTPSTSSSSSFDPSVFDGLGDLLM [SNAP91] | 3.32 ± 0.21 | 3.48 ± 0.28 | – | –
ENVKDVPFGFQTVTSDVNKLSSFY [SERPINB5] | 2.74 ± 0.15 | 3.09 ± 0.46 | – | –
QMMSATAQNREPESVEQLESRIVE [SNX8] | 5.37 ± 0.17 | 5.56 ± 0.24 | – | –
RFFACPSKATFSRNIMNLIDIVAI [KCNA3] | 2.8 ± 0.61 | 2.87 ± 0.46 | – | –
GEKPFKCHLCNYACRRRDALTGHL [IKZF1] | 2.2 ± 0.12 | 2.51 ± 0.53 | – | –
IQGQNKEMLAAACQMFLGKTEAEI [FLOT1] | 3.49 ± 0.15 | 3.42 ± 0.33 | – | –
ILLDPILMFFIMAAMLSMVKYNSC [POMT2] | 3.27 ± 0.18 | 3.2 ± 0.05 | – | –
SDINSLRRILDELTLCRSDLEAQM [KRT33B] | 2.85 ± 0.36 | 2.92 ± 0.38 | – | –
MHLNFMDEKDRIITAFYNEARARA [DNAJC4] | 2.92 ± 0.35 | 2.98 ± 0.19 | – | –
HEWKSLAPMDAPRYQHGIAVIGNF [KLHL13] | 2.22 ± 0.2 | 2.17 ± 0.26 | – | –
WVYSGRRGVHCWVCDESVRKLSSA [PRIM1] | 2.51 ± 0.84 | 3.04 ± 0.39 | – | –
GRVHLVKEKTAKHFFALKVMSIPD [PRKX] | 1.87 ± 0.52 | 2.38 ± 0.57 | – | –
EEDSFYRSSYPQQQGLGASYRTES [TBX5] | 4.37 ± 0.2 | 4.22 ± 0.15 | – | –
SFVKKNVLVTGGFFGGFLLGMAS [FUNDC2] | – | – | 3.64 ± 0.15 | 2.96 ± 0.41
AYLELEITLSQEQIQKYTDCLQFY [RTN1] | 2.57 ± 0.4 | 3.04 ± 0.86 | – | –
QLLSAMGSLCSLWFGASVLSLLEL [SCNN1D] | 3.2 ± 0.61 | 3.19 ± 0.49 | – | –
ETHLRHMKALLGSYAHSVEDTHVQ [FCHO1] | 3.49 ± 0.5 | 3.35 ± 0.29 | – | –
RCEMEAQNQEYKMLLDIKTRLEQE [KRT15] | 4.44 ± 0.17 | 4.6 ± 0.18 | – | –
DTTTPTTSAITASRSESPPPLSDP [BRD3] | 5.45 ± 0.42 | 5.57 ± 0.12 | – | –
AKVKPFDPKITCKQECLITTFQDV [TPH1] | 2.75 ± 0.52 | 2.42 ± 0.52 | – | –
IPMHIDHDRNMDWVSTQLQATCNV [FADS1] | 3 ± 0.28 | 3.24 ± 0.27 | – | –

Sequence | protein stability index [1] | protein stability index [2] | protein stability index [3] | protein stability index [4]
VVAYLALAALSATISFRIYKSVLQ [RTN1] | 2.7 ± 0.66 | 2.87 ± 0.43 | – | –
LDDIIRHDFFLQGFTPDRLSSSCC [PLK2] | 2.48 ± 0.043 | 2.64 ± 0.3 | – | –
PQLGLDGPGEPDVRDGFSATFEKI [PSD2] | 4.73 ± 0.18 | 4.67 ± 0.13 | – | –
SFGACLREETPRMPSWASARDRQP [ELOA2] | 3.4 ± 0.34 | 3.13 ± 0.32 | – | –
EIPKNCVVAAVGKELIIFRLVAPT [WDR41] | 2.69 ± 0.6 | 2.28 ± 0.43 | – | –
IQVEDIRIRAILSTYRKRTPVMEG [LOXL2] | 2.13 ± 0.48 | 2.16 ± 0.35 | – | –
NARAQQRAAAQQRRSFLNAHHRSG [GNAS] | 4.28 ± 0.32 | 4.36 ± 0.14 | – | –
GGKSGELEQEEERLSKEWEDSKRW [CHGA] | 5.3 ± 0.33 | 5.07 ± 0.32 | – | –
AISPGRFPEALDELPLPPFLQPLD [ANKRD9] | 3.91 ± 0.32 | 3.96 ± 0.18 | – | –
MSFVAGVIRRLDETVVNRIAAGEV [MLH1] | 2.85 ± 0.35 | – | – | –
FNKGIYDIHVGLRGVPLLEWETEV [CLCN6] | 2.13 ± 0.32 | 2.17 ± 0.44 | – | –
FDGPEAWGVCEPQREEVEERMWAA [ZER1] | 3.43 ± 0.71 | 4 ± 0.53 | – | –
AGEGLPQVYYFGPCGKYNAMVLEL [CSNK1G1] | 3.19 ± 0.65 | 2.65 ± 0.94 | – | –
IDLSAWCYYCQAYVHHQALLDVKN [HDAC6] | 2.73 ± 0.38 | 3.08 ± 1.2 | – | –
SDTTHLVTLGGVLRQQLVVSKELR [KLHL13] | 3.04 ± 0.069 | 3.1 ± 0.3 | – | –
DCVDGLFKEVKEKFKGWVSYSTSE [DLC1] | 3.04 ± 0.5 | 3.33 ± 0.3 | – | –
GRYPLIQTLRQELSLPYLPSGTPE [CHIT1] | 3.51 ± 0.26 | 3.47 ± 0.27 | – | –
HETRLVEVDSGRQIEYEYKLAQAL [LMNB1] | 3.81 ± 0.044 | 3.96 ± 0.29 | – | –
VLMWLLTYVGALFNGLTLLLMAVV [RTN1] | 2.51 ± 0.29 | 2.42 ± 0.13 | – | –
NVVPIHVPPTTENKPKVQCCQNI [RAB11A] | – | – | 4.13 ± 0.19 | 4.12 ± 0.11
